In paper PMC8912257 (Cell Host & Microbe, 2022):
Where no end group is shown, it is not given here. [ ]: non-standard residue; d: D form. pY = N[C@@H](Cc1ccc(OP(=O)(O)O)cc1)C(=O)O

Key:
Settings in all cases: both partners purified
[1] = molecular target: T1, Full-length STAT1 protein (unphosphorylated) (human, UniProt P42224 1-750); experiment: fluorescence polarisation
T1 construct: also called U-STAT1; pEXP-nHis-STAT1
T1 sequence (looked up): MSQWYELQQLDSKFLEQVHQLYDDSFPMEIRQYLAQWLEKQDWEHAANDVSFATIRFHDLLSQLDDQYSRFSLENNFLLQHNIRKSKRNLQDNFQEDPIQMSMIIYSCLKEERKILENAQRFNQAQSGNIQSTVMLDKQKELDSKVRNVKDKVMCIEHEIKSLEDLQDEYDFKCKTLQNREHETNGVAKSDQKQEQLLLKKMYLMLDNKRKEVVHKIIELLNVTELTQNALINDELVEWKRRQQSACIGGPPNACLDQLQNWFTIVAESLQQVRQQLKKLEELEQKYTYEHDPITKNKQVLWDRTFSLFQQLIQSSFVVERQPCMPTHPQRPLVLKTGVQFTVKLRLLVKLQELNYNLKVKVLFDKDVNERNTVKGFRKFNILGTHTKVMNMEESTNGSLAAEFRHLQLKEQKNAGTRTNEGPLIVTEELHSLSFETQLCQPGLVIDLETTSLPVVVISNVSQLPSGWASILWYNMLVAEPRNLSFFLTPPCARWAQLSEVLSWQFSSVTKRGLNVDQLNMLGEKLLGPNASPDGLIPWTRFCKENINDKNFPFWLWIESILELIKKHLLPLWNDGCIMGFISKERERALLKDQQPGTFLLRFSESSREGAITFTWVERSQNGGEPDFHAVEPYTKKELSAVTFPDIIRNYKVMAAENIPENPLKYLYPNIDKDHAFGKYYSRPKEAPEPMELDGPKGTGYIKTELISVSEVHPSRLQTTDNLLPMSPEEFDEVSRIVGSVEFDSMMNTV

[2] = molecular target: T1, Full-length STAT1 protein …; experiment: ITC
[3] = molecular target: T2, Full-length STAT1 protein (unphosphorylated, U-STAT1) (UniProt P42224 1-750); experiment: ITC
T2 construct: also called STAT1 FL
T2 sequence (looked up): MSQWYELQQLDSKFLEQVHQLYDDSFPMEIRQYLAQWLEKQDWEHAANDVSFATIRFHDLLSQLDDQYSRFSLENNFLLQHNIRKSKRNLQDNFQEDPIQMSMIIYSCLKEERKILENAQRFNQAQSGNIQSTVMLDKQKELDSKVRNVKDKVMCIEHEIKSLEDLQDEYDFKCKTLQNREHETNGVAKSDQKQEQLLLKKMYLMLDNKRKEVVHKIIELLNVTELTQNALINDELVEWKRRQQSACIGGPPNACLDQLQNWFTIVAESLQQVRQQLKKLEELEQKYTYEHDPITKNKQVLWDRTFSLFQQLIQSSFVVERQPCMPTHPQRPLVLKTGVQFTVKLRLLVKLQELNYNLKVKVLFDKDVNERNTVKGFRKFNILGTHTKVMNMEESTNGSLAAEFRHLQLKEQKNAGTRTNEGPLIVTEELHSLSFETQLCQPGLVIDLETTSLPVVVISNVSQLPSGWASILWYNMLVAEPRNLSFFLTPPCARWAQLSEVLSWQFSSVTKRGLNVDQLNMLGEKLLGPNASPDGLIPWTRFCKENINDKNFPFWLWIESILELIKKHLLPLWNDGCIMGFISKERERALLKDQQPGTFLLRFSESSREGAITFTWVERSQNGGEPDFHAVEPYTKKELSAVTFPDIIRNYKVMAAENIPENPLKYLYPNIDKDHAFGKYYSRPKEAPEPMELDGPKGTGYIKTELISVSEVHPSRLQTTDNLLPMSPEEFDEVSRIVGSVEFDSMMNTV

## MWSVFIHGHDGSNKGSKTYTS (domain or fragment) [GB1-018^T2]
[1]
  IC50: 0.93 µM
[2]
  Kd: 0.235 µM

## MWSVFIHGHDGSNKGSK (domain or fragment) [GB1-018^T3]
[1]
  IC50: 17.8 µM
[2]
  Kd: > 10 µM

## MWSVFIHGHDGSNKGSKTYTS [018 21-mer peptide]
[2]
  Kd: 0.321 µM

## Ac-MWSVFIHGHDGSNKGSKT[pY]TS-NH2 [018 phospho 21-mer peptide (Ac-MWSVFIHGHDGSNKGSKT(pY)TS-NH2)]
[3]
  stoichiometry N: 1.12

## Ac-MWSVFIHGHDGSNKGSKTYTS-NH2 [018 21-mer peptide (Ac-MWSVFIHGHDGSNKGSKTYTS-NH2)]
[3]
  stoichiometry N: 1.09

## MWSVFIHGHDGSNKGSKTYTS (also: phospho, position not given here) [018 phospho 21-mer peptide]
[2]
  Kd: 0.174 µM

B1: GB1-018 (natural protein)
chain: MSSKGGSSGGMWSVFIHGHDGSNKGSKTYTSGGGGMWGGGSSSGVKSGVNGGVKSGTGKI
[1]
  IC50: 1.26 µM
[2]
  Kd: 0.291 µM
  stoichiometry N: 1.02

B2: pIFNGR1 5-mer peptide (Ac-pYDKPH-NH2) (peptide)
peptide: Ac-[pY]DKPH-NH2
SMILES: CC(=O)N[C@@H](Cc1ccc(OP(=O)(O)O)cc1)C(=O)N[C@@H](CC(=O)O)C(=O)N[C@@H](CCCCN)C(=O)N1CCC[C@H]1C(=O)N[C@@H](Cc1c[nH]cn1)C(N)=O
notes: also called pIFNGR 5-mer
[3]
  stoichiometry N: 0.708

## MWSVFIHGHDGSNKGSK (domain or fragment) [GB1-018^T3 (018^T2 without the C-terminal 28-TYTS-31, fused to GB1)]
[3]
  stoichiometry N: 1

## MWSVFIHGHDGSNKGSKTYTS (domain or fragment) [GB1-018^T2 (minimal fragment of 018, aa 11-31, fused to GB1)]
[3]
  stoichiometry N: 1.01
